Patent US20160304858A1
Primed or numbered codes have the meaning given here. Where no end group is shown, it is not given here. [ ]: non-standard residue; d: D form. The star is where a group is joined. Hpra′ = its azide, alkyne or alkene has reacted where a group follows in round brackets; maleimide‑biotin = maleimide-biotin reagent joined to deprotected Cys; Man9″ = Man9 glycan attached to Hpg by CuAAC click with Man9-azide; Man9(3) = Man9-azide click-glycosylated onto Hpg; For = O=C*

Assays:
[1] = molecular target: HIV broadly neutralizing antibody 2G12; test: radiolabelled glycopeptide with 2G12 in solution, protein G bead capture, scintillation counting
[2] = molecular target: HIV broadly neutralizing antibody 2G12; test: radiolabelled glycopeptide with 2G12, protein G bead capture (end tied by Table 4)
[3] = molecular target: HIV broadly neutralizing antibody 2G12; test: radiolabelled glycopeptide with 2G12, protein G bead capture; low end tied to 10F6 by Table 4
[4] = molecular target: HIV broadly neutralizing antibody 2G12; test: BLI curve fit, 0.5 nM 2G12
[5] = molecular target: HIV broadly neutralizing antibody 2G12; test: BLI curve fit, 32 nM 2G12
[6] = molecular target: HIV broadly neutralizing antibody 2G12; test: BLI curve fit, 4 nM 2G12
[7] = molecular target: HIV broadly neutralizing antibody 2G12; test: BLI curve fit, 8 nM 2G12
[8] = molecular target: HIV broadly neutralizing antibody 2G12; test: BLI curve fit, 16 nM 2G12
[9] = molecular target: HIV broadly neutralizing antibody 2G12; test: BLI (BLItz), glycopeptide on streptavidin sensor, 2G12 in solution, global 1:1 fit
[10] = molecular target: HIV broadly neutralizing antibody 2G12; test: BLI curve fit, 1 nM 2G12
[11] = molecular target: HIV broadly neutralizing antibody 2G12; test: BLI curve fit, 2 nM 2G12
[12] = molecular target: HIV broadly neutralizing antibody 2G12; test: radiolabelled glycopeptide with 2G12, protein G bead capture; high end tied to 10V8 by Table 4

Row | Binder | Fmax [1] | Kd [1] | further results
1 | glycopeptide 10F12 (Fixed library, round 10) (not fully specified (bridges); cysteine pairing not given here) peptide: For-[Hpra′](Man9″)CYVTVIPA[Hpra′](Man9″)N[Hpra′](Man9″)PEARLGIVCH[Hpra′](Man9″)PGIRRGKALYGSGSLGHHHHHHRDYKDDDDK | 90% | 0.77 nM | –
2 | For-[Hpra′](Man9(3))VLNDGRRIVQ[Hpra′](Man9(3))SCELP[Hpra′](Man9(3))VRRSGSGSLGHHHHHHRDYKDDDDK [glycopeptide 10F5-Δ11] | 17% | > 200 nM | –
3 | glycopeptide 10V1 (Variable library, round 10) (peptide) peptide: For-[Hpra′](Man9(3))ATKTNCKREKT[Hpra′](Man9(3))DNHVTI[Hpra′](Man9(3))RSIPWYTYRWLPNGSGSLGHHHHHHRDYKDDDDK | 97% | 1.9 nM | –
4 | For-[Hpra′](Man9(3))[Hpra′](Man9(3))AALK[Hpra′](Man9(3))QVTD[Hpra′](Man9(3))YALALFHRILGSGSLGHHHHHHRDYKDDDDK [glycopeptide 10F2-Δ11] | 70% | 0.89 nM | –
5 | glycopeptide 10F6 (Fixed library, round 10) (peptide) peptide: For-[Hpra′](Man9(3))L[Hpra′](Man9(3))FIRIYPTR[Hpra′](Man9(3))QYVYHAPLLT[Hpra′](Man9(3))VR[Hpra′](Man9(3))SPTGPLIGSGSLGHHHHHHRDYKDDDDK | 87% | 0.54 nM | Kd [2]: 0.5 to 0.6 nM; Kd [3]: 0.5 to 5 nM
6 | For-[Hpra′](Man9″)HPYNTSRTSA[Hpra′](Man9″)[Hpra′](Man9″)AALK[Hpra′](Man9″)QVTD[Hpra′](Man9″)YALALFHRILGSGSGC(maleimide‑biotin)A [biotinylated synthetic 10F2 glycopeptide 3] | – | – | Req [4]: 0.481; Req [5]: 1.39; Req [6]: 1.26; Req [7]: 1.37; Req [8]: 1.41; Kd [9]: 1.37 nM; koff [9]: 0.000151 s⁻¹; kon [9]: 111000 M⁻¹ s⁻¹; Req [10]: 0.682; Req [11]: 0.987
7 | glycopeptide 10F2 (Fixed library, round 10), ribosomally translated (peptide) peptide: For-[Hpra′](Man9″)HPYNTSRTSA[Hpra′](Man9″)[Hpra′](Man9″)AALK[Hpra′](Man9″)QVTD[Hpra′](Man9″)YALALFHRILGSGSLGHHHHHHRDYKDDDDK | 86% | 0.6 nM | Kd [2]: 0.5 to 0.6 nM
8 | For-[Hpra′](Man9(3))PNCITQQDVR[Hpra′](Man9(3))TSIPYTYTWPGSGSLGHHHHHHRDYKDDDDK [glycopeptide 10F3-Δ11] | 32% | 25 nM | –
9 | glycopeptide 10F5-C10,25S (peptide) peptide: For-[Hpra′](Man9(3))SPHLPVLLSK[Hpra′](Man9(3))VLNDGRRIVQ[Hpra′](Man9(3))SSELP[Hpra′](Man9(3))VRRSGSGSLGHHHHHHRDYKDDDDK | 94% | 2.5 nM | –
10 | For-[Hpra′](Man9(3))RSIPWYTYRWLPNGSGSLGHHHHHHRDYKDDDDK [glycopeptide 10V1-Δ9] | 20% | 7.5 nM | –
11 | glycopeptide 10F12-C2,21S (peptide) peptide: For-[Hpra′](Man9″)SYVTVIPA[Hpra′](Man9″)N[Hpra′](Man9″)PEARLGIVSH[Hpra′](Man9″)PGIRRGKALYGSGSLGHHHHHHRDYKDDDDK | 90% | 186 nM | –
12 | glycopeptide 10F9 (Fixed library, round 10) (peptide) peptide: For-[Hpra′](Man9(3))RSTLNSLEYR[Hpra′](Man9(3))QYATEDPRIR[Hpra′](Man9(3))ASIPYTYWWPGSGSLGHHHHHHRDYKDDDDK | 86% | 3.1 nM | –
13 | glycopeptide 10F5 (Fixed library, round 10) (cysteine pairing not given here) peptide: For-[Hpra′](Man9(3))SPHLPVLLCK[Hpra′](Man9(3))VLNDGRRIVQ[Hpra′](Man9(3))SCELP[Hpra′](Man9(3))VRRSGSGSLGHHHHHHRDYKDDDDK | 93% | 0.97 nM | –
14 | glycopeptide 10F3 (Fixed library, round 10) (peptide) peptide: For-[Hpra′](Man9(3))DTLHLKQIGG[Hpra′](Man9(3))PNCITQQDVR[Hpra′](Man9(3))TSIPYTYTWPGSGSLGHHHHHHRDYKDDDDK | 100% | 3 nM | –
15 | glycopeptide 10V9 (Variable library, round 10) (peptide) peptide: For-[Hpra′](Man9(3))TSIPYTYLNRSLWTNYRVNSWS[Hpra′](Man9(3))SKNVNV[Hpra′](Man9(3))PLGSGSLGHHHHHHRDYKDDDDK | 85% | 3.9 nM | –
16 | glycopeptide 10V8 (Variable library, round 10) (peptide) peptide: For-[Hpra′](Man9(3))VLPTIISTNVNPFR[Hpra′](Man9(3))LSIPTYTYL[Hpra′](Man9(3))PITWGEIGSGSLGHHHHHHRDYKDDDDK | 94% | 4.6 nM | Kd [12]: 0.5 to 5 nM
17 | glycopeptide 10F8 (Fixed library, round 10) (peptide) peptide: For-[Hpra′](Man9(3))LLK[Hpra′](Man9(3))VDQSRL[Hpra′](Man9(3))PVPGIGVTLH[Hpra′](Man9(3))RSIPYSYLPIGSGSLGHHHHHHRDYKDDDDK | 97% | 2.6 nM | –
18 | glycopeptide 10F3 -C15S (peptide) peptide: For-[Hpra′](Man9)DTLHLKQIGG[Hpra′](Man9)PNSITQQDVR[Hpra′](Man9)TSIPYTYTWPGSGSLGHHHHHHRDYKDDDDK | 63% | 2.91 nM | –
